Test results: doi:10.1101/2023.08.10.552882

Target: human 26S proteasome (human) (UniProt O00487)
Test: single-molecule TIRF microscopy

Sequence of UniProt O00487 (O00487 whole entry, looked up): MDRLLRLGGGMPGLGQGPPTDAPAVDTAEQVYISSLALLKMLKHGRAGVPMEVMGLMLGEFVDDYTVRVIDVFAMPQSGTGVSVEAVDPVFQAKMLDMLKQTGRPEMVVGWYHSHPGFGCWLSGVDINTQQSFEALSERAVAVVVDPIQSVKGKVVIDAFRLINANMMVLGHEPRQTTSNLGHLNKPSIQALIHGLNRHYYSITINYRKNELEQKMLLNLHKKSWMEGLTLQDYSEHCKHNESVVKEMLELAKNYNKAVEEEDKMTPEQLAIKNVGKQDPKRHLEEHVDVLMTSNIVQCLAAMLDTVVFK

## K48-polyUb-GFP (from UniProt P0CG48)
  half-life of the proteasome-substrate complex: 2.82 s
  puncta density relative to pK48-polyUb-GFP: 5 fold

## pK48-polyUb-GFP (from UniProt P0CG48)
  half-life of the proteasome-substrate complex: 0.73 s
